Reference: the domain aggregation screens of Martell et al. (2025)

Experiment: soluble fraction after stress (log2 fold change); higher = more stays soluble; pooled small domains, quantitative proteomics
Conditions: stress: pH 4
Summary of the method: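 Values are on a log2 scale, where higher means more of the domain stayed soluble after pH 4 stress. They are fold changes in the soluble amount of each domain from pooled custom libraries, measured by high-throughput quantitative proteomics. The fold change is taken to reflect aggregation propensity.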

## HMTKPTLMEVEIKGAIQNPGVYTLKRNSSISKLIKMSGPLLENADTSSISFTHILQDKDVVVIPEIK
  soluble fraction (log2): -0.177

## HMTNADRFIGEEAMVIKKIDDINNDGQVKIAGQVWSAVSEDKSPLEEGTIVKVIAIRGVKLVVEPVS
  soluble fraction (log2): 0.0967

## HMTAPQAQDYARVPDVLGLDMRESAQALRLDGFEMNAQGDGLAARQSPIGGSYAPEGTQVLVTFEM
  soluble fraction (log2): -0.0592

## HMKRTLLLEGRTIPYELTQKPVKNINIRVHADGSVRVSAGPWVSPEAVDAVLRQRSAFLLRALDQFAAQAP
  soluble fraction (log2): -0.923

## HMGPVDFYQMFISELQHLAEKPVTVDALIESTQLHKSQLTEWLKRAVDDGVVKKLNRPARFQVKNK
  soluble fraction (log2): 0.136

## HMNTWVEIFRAEDQGQIRDASLVLLAVKVAHRVDMNSSSAPWSLMVPAQDQQRAHHELTTYWQENAH
  soluble fraction (log2): -1.35

## HMFEKVKLTLTIPSKYSGSTYSALRNRMNKFSKEEWLSNGDLKIEIEVTGGQKTDIYTLINKLTNGEAIIE
  soluble fraction (log2): -0.203

## HMNEMSDTITRLLDAAETGIRLRGYHAVSFRDLAEELGIKSSSVHYYFRQKEDLGLAVVERY
  soluble fraction (log2): -0.185

## HMAQPIPSGSDIREAREAAGMNLRDFARMVGGGAIGTWSHYETGKPIRVKSISPEVWQRVRDFILQHGK
  soluble fraction (log2): 0.036

## HMIKSIRELAEVITLWKNQGKTILIAEHRLSYLMDLADRVLYMKDGQIENDFSMADFRKIPPDEISRMGLR
  soluble fraction (log2): -0.532

## HMKNTLDAYIRYLSNFLSRNNYPEAEDLSFINARADQAYEVFLEARRGGVDVSTAEELAMIALMQGY
  soluble fraction (log2): -1.34

## HMSIYYQIYESLKKDLSNNLYKPGEKLPSENVLSKRFGVNRHTIRRSLQLLKNEGILFSKRGSGIIVHD
  soluble fraction (log2): 0.359

## HMVKVSVYPNPAVDRITISGEVKAYAVYDATGKVVMKDTDYRGGAIGVSHLPAGIYIVRTDAGAVTVNK
  soluble fraction (log2): -0.246

## HMSSPRAIYSAIQKAVGEDMILYREDVQIILDKLDADLLVDDILEKMELDGTLVRQRDGTWLLL
  soluble fraction (log2): -1.01

## HMRKYEAVPASVVPAQIQEYVAKSNFPNQYIRKIERNKYTWEIELSNGLEIKFDRQFNVIGFD
  soluble fraction (log2): 0.338

## HMQQIQILPDGKIKLPDLSGTNMREAIEILHKGGLRMKPYGSGNAYQQKPAAGETVASGTTVEVLSL
  soluble fraction (log2): 0.0974

## HMSSSMDAIAEIIRSIPRGDHLTAPEVYELAKQRGLKLSLSTVYRTLNKLKVVGDVITVSGDRGLRYESV
  soluble fraction (log2): 0.215

## HMDAYDEVTTLSQMVASGKNTTVAHLKHLKEYHQTDYLRQAVEWLLSNRKNVSFSVDEVMQEVHN
  soluble fraction (log2): -0.434

## HMRSLVDRSVQAVTDHIRENALRVGDSLPGEAYFATSLGVSRAVMREAFGALAALRVIDVGNGRKPRVGAI
  soluble fraction (log2): -0.438

## HMGKPAGLIRELGNHPEDEKPVTLNNGRFGPYVKHGKVMASLTKADSPDDITFDRAIELIAIKAEKMAAKG
  soluble fraction (log2): -0.00901

## HMLDVNLIFSRPGFSLSAAFTLHAGGITVLRGDSGSGKTTLADLLSGAIAPQKGRILSDGDIWFDAASGIN
  soluble fraction (log2): -0.163

## HMPGVLEVDTGGVAAVAYVDGVEVGRVPGELQIAAGTKTLMLKADRYLDYVQSLEIDGLGKRQLLVATLQS
  soluble fraction (log2): -0.831

## HMDSGLEQAKTAALENAELETSQVTFIKAELDYDDGKKVYEIEFVTSAMKYEYQVKADDFSILEMSKETIE
  soluble fraction (log2): -0.129

## HMNDELMEQIDEWHKAEKHQEIIDALEQIPEAERDFETTGFLARAYNNIEEYAKAADLLESVRE
  soluble fraction (log2): -1.51

## HMKNISSEEDREKALSLGITQEFIDNKGRYFITVPNKPSNFKEQALNIQKEISEQIDTVINKRFEF
  soluble fraction (log2): -0.263

## HMPDLSYVDEVLNRYKGHKGTLITVLQQVQAHKGYLEKEALERVARSMGVPTARIYGVVTFYAQFR
  soluble fraction (log2): 0.099

## HMGVDIAEHDGQPAVSIRKGAAESVAQWVKDQGGTFPQEVEMTVQNVARAGGTPLVVARGRDVLGVIYLKD
  soluble fraction (log2): -0.281

## HMRSTIYEFTVPPGQLESIRLDVYITSFVENATRSKVQEAIKQGYVWVNGKHEKASYTMLPGDKIYIELPI
  soluble fraction (log2): -0.497

## HMSMFAQQLKDLRKKIPGLTQTDMAKKLGIAKTTYASYEQGKRTPDIETQNKIADFFNVSLDYLHG
  soluble fraction (log2): 0.22

## HMKTIQVGSTVRVNQGAKTYSGGGLASFVYKRNHKVSQLQGDRAVITYEGTVVAAVHVSDLSLIH
  soluble fraction (log2): -0.801

## HMRGLGDLEPVDSLGKIRIDDGHMVLAFGRHKGRHLSEVQAEDPRYIHWLLSPKGIEDVEAREKVKVYLEG
  soluble fraction (log2): -0.136

## HMVNYKEILRLSAEGNSQRQIAAGSGNSRNTVIEVLEAARARGITWPLDEPVTNEQLEAILFPNRY
  soluble fraction (log2): ≥ 0.43

## HMSFGESLKKLSIALNSIRKLATTDAGKKDPKVADLLGQIRDTFNSYRTHLRKNYPDLYSGIKNQL
  soluble fraction (log2): -0.311

## HMSNLVEVPAVIGRMKEDAITMLISAGLEPAVTYDEYPLVKENLVADQSVAPGQKVEKGSFVTITVSRS
  soluble fraction (log2): 0.22

## HMTIRPEDVELVPAEDGYMQGDVVSNIFKGVHYELEVKANGYDWMVHTTKYVEVGSHVGIKVIPFNIQV
  soluble fraction (log2): 0.22

## HMTATDRQLQLIAYTAARLMAEQGIADFNAAKRKAIQTLGLPNNAKLPGNADVEAQLRAYQRIF
  soluble fraction (log2): 0.0539

## HMDRIISTPMPGRVVKIPVTEGEPVAKGATVITISAMKMESEYKSPIDGIVKKIHVSEGDNINANQPLIEI
  soluble fraction (log2): -0.112

## HMLKLSGEESQQLALRLREELARRRITRQGLADAAKISISTLEQVLAGRRTFTLATIVRLEEGLGIKLL
  soluble fraction (log2): 0.387

## HMYDNTVTKYVNSLSVYVRKGPSTSDEIVTSLIKDTDVTVVGENGEWYKIKYKEFEGYIYKNLLSDNKT
  soluble fraction (log2): -0.125

## HMGLPAWVPQNYIDRVTAIYDYSADKDDELTFNEGSTIFVLKKNDDGWWEGVMDGVTGLFPGNYVEAT
  soluble fraction (log2): -1.63

## HMTPAKQVSAKAERWIDQLGSSDWEKREEAAAELKKLGGAAKSALEKALKNADPEVASKAEELLEALES
  soluble fraction (log2): 0.213

## HMAQASEPMLALIRLKWWEEQINSPVKGDSLPLLSQLNSHISAGYLSRSQVTSLIQRWQDYA
  soluble fraction (log2): -1.18

## HMDRDQNVEEGQRSLKSEMGRFGLLIANMDDLAERVNYGNAEDMYAAIGAGDLRLMQVVHAAEEMLG
  soluble fraction (log2): -0.61

## HMKNTFGLTEREMEVLALIVDGLSNPEIAEKLFITRATAKAHVHSILQKLYVDDRTQAAVTAMREGL
  soluble fraction (log2): -1.14

## HMQTPVTVGDTMPNLIGTPKRLLLELLNRTDITVKLTGDGYVTAQSPAAGTPIAKGMIIELSL
  soluble fraction (log2): 0.19

## HMGIQYVASGHYARMETDAQGVSRLFPPESGAPDESDRLAALSPEVLTRLILPLGDFAPEDVEEMAVD
  soluble fraction (log2): -0.294

## HMPPAPGHDLTEREREVLRLLVEGLSNQEISDRLVISQSTVKNHVSSVLSKLDAANRAEAVALALKNQL
  soluble fraction (log2): -0.547

## HMKEADVRKNEILDAAGILFSEKGYDNTSVTDIMNAVGFAKGTLYHHFKSKEDIMDALIKRQTD
  soluble fraction (log2): -0.61

## HMPHSTTDFSVSPDERQIVYSTNLQGRYDLWALDHNQGYPYPLTKKGQMSFFIKHLPGSQMILTGFD
  soluble fraction (log2): 0.0618

## HMKSEMYIDLSNALLKMSERDKELLTYRYTMEMSSKEISQITGIKESNVNSYIRRAREKLLKIFNAMNK
  soluble fraction (log2): 0.123

## HMKRNTKAEVLEILLNSGETPVSGERLAENLGISRNAVWKAVTALKEDGYNISAKRNSGYILNKS
  soluble fraction (log2): 0.376

## HMYFNTADLKADSIHYGSTEQSVIKILGEPEYRETFVDNNVSYELFSYKGNLLLSFVENSLVSL
  soluble fraction (log2): -0.0269

## HMDKWFPVSSDHKVQVGDYLRTADGLVKVEATHNEYGTFYGKIITAIHDDVVKGETYEYRIDDVQVLA
  soluble fraction (log2): -1.77

## HMISAVDLMAARRKIEAGITNLQPGQAFTLPNKVGWVKRMTGGSYFIQGNGGYTASVRTISEAIQAAAMLL
  soluble fraction (log2): -0.0224

## HMRDQARQFFIDTWAKFQRHDALTPLEEKTAAIIALHPEYHRVLQNPESFITTDWRPESGDINPFMHL
  soluble fraction (log2): -0.803

## HMGGKWSMPIIYILSKGKMRFKELERSVEGINTRMLVKELKNMEANGIVTREVFPTVPPTVEYALT
  soluble fraction (log2): -0.178

## HMIGEKLKEIREKTGMNKKEFAQYLGLKYTTYNNYETEAREPASDFLILISTKFDVSIDYLLGLQ
  soluble fraction (log2): -0.389

## HMNKPTFNIFNNRLTFPFKGDITIYSLDGKRVFSAYNESSVNLSFLNRGSYISEFNNSRSVLIL
  soluble fraction (log2): -0.948

## HMNLDPHVVGHRLRDLRTRRDLTLADVAAETDISVSTLSRLESGSRRATLELLVPLARTYRVTLDELVDA
  soluble fraction (log2): -0.353

## HMEPSERYKALQSLLPDYAKRLKKKGVTRHQLFLEYRLTHPDGYARSRFGTYFQAYLALSHP
  soluble fraction (log2): ≥ 0.43

## HMDSLSLTELRIDSASPWIGNRISDFSPYAGELVIMIIRGEETIVPNGDTIILDKDLLVIYSS
  soluble fraction (log2): -1.39

## HMFASSADGVEGLKTNPIFASTKEKSDAGKLLYTRYLAIGIFRMLELAKATDPKALEALVEAGG
  soluble fraction (log2): 0.147

## HMVKEVKVPDVEGLTTEEAIKELKKYGLAYTTKSEENTDIEEGKVIRTEPKKGSTKVKGSTVTIIESSG
  soluble fraction (log2): 0.253

## HMIVDARNREINLGSHVRYVDTGTVGEVTDSKVENDASWVKIDKTNLWYLANKLELLNDEDFKT
  soluble fraction (log2): -0.517

## HMLLQTRQRHEALAALGYFKGDVAAAWGPASEEALRAAQAAFGITVDGKWGPQTEDAIQGALQV
  soluble fraction (log2): -0.701

## HMNAKVVAPIPGTVLSIDIKVGDVIKIGDRLLVLEAMKMENNIASEKSGTVTAVHVKVGQQVLQNELMIEL
  soluble fraction (log2): -1.2

## HMIIIMKKSATNSEVRKVIERAEKEGLTVQVNQLEKQQVLGLVGDTRLIQDVAFLRYEGVENVERI
  soluble fraction (log2): 0.206

## HMQLKFTDLRKEILRMIWEGHGPQKAYDLLNKLQQTNPSAKPATVYRALDFLIGNGFIHKVASLNAFVG
  soluble fraction (log2): -0.942

## HMPPITIVPNDNGVPIIRSQTPEISTAVNVELKAAGINTHTIDGTSIRVPKAQAQVAQQIVSRVNTRFT
  soluble fraction (log2): 0.266

## HMHMSLTEKYKELTDLAVSAGVQNLNVREQDGVLYVDGDASGAVKQQLWDTYGKLDPDYTSGDLVLNI
  soluble fraction (log2): -0.696

## HMEEDPVISQAQRQALFKLAHDHFGQEEGNKVILRLIGEHGLRSTTNMTASVYKTVTDALIQVIESMVEG
  soluble fraction (log2): -0.444

## HMLVLAENMDVIFTRRTLDDHVVVDYKTTIGEMVKNDEIKGENMDELISAVEKDGYELVSSTSGEIIFLND
  soluble fraction (log2): -0.704

## HMGASIQITVNNTPVMLKNKTHYTLVDVLDFYPFDLSKMGGTELYTAINGVKSGFTDPVHANDSIEIYWI
  soluble fraction (log2): 0.196

## HMIHQPNNETTRNLIAGVVKKSLSVWETRVQVDGVDVTTAKDNLAEVHINIRYRLRHNQTPASLGLRLNLG
  soluble fraction (log2): -0.15

## HMSAVVAPLPGLIQNILVKVGDTVHAGQHVLTMEAMKMENEIQTNRDGIIKDIKVRIGDSVNEGDTLIIL
  soluble fraction (log2): -0.311
